Key:
[1] = target: CS1-specific CAR (anti-CS1-scFv-CD28-CD3ζ; Pinco-CS1-CAR construct), expressed on transduced primary human T cells; experiment: flow cytometry, CS1-CAR-transduced T cells of patients with relapsed myeloma, double staining with anti-CD3
[2] = target: CS1-specific CAR (anti-CS1-scFv-CD28-CD3ζ; Pinco-CS1-CAR construct), expressed on transduced primary human T cells; experiment: flow cytometry, CS1-CAR-transduced healthy donor T cells

CS1-specific CAR (anti-CS1-scFv-CD28-CD3ζ; Pinco-CS1-CAR construct), expressed on transduced primary human T cells, sequence (chain, as listed by the source): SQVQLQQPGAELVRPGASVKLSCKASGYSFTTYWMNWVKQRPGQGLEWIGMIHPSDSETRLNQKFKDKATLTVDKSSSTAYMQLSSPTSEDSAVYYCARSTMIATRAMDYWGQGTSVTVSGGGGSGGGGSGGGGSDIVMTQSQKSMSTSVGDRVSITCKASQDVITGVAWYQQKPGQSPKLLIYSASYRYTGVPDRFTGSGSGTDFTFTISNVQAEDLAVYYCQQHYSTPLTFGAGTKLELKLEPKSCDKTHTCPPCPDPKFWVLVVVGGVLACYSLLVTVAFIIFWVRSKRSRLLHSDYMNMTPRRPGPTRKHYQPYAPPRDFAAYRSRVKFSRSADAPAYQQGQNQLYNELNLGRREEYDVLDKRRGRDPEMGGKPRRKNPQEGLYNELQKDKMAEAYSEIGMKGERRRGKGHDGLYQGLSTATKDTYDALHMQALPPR

percent of cells stained [1]: 60.7%
percent of cells stained [2]: 70.3%
Substance: biotin-labeled goat anti-mouse (Fab)2 polyclonal antibody (Jackson ImmunoResearch)
